The target in assay [1] is H7N7 A/Netherlands/219/03 HA protein (influenza A virus H7N7 A/Netherlands/219/03). The assay can be described thus: ELISA on HA. For orientation: An ELISA detects its analyte on a solid surface through an enzyme-linked reagent.
For assay [2] the target is unchanged. As to the kind of experiment: ELISA on coated HA.

B1: FI28 variant 1 (antibody, V domains shown)
VH: EVQLVESGGGAVQPGESLKLSCAASGFTFSNYGMHWVRQAPGKGLEWVAVISYDGSNKYYADSVKGRFTISRDNSKDTLYLQMNSLRAEDTALFYCAKERPLRLLRYFDWLSGGANDYWGQGTLVTVSS
VL: DIVMTQSPDSLAVSLGERATINCKSSQSVLYSSNNKNYLAWYQQKPGQPPKLLIDWASTRESGVPDRFSGSGSGTDFTLTISNLQVEDVAVYYCQQYYRSPSFGQGTKLEIK
With B1, the Binding to HA by ELISA (% of subtype specific control antibodies) in assay [1] was -0.5%.

B2: FI6 variant 2 (antibody, V domains shown)
VH: QVQLVQSGGGVVQPGRSLRLSCVASGFTFSTYAMHWVRQAPGRGLEWVAVISYDGNYKYYADSVKGRFSISRDNSNNTLHLEMNTLRTEDTALYYCAKDSQLRSLLYFEWLSQGYFDPWGQGTLVTVTS
VL: DIQMTQSPDSLAVSLGARATINCKSSQSVTFNYKNYLAWYQQKPGQPPKVLIYWASARESGVPDRFSGSGSGTDFTLTISSLQAEDVAVYYCQQHYRTPPTFGQGTKVEIK
One may read the EC50 as the concentration that produces a half-maximal response. The low end stands for higher potency in that assay, the high end for lower potency in that assay. In assay [2], B2 gave an EC50 of 0.026 µg/mL. In addition, the Binding to HA by ELISA (% of subtype specific control antibodies) in assay [1] came to 87.9%.
